Experimental data taken from the RNAGym collection of RNA variant scans (doi:10.1073/pnas.2313332121).
Fewer inactive variants are shown than the library holds.

B1: TPR 5TU (parent)
chain: GGAUCUUCUCGAUCUAACAAAAAAGACAAAUCUGCCACAAAGCUUGAGAGCAUCUUCGGAUGCAGAGGCGGCAGCCUUCGGUGGCGCGAUAGCGCCAACGUUCUCAACUAUGACACGCAAAACGCGUGCUCCGUUGAAUGGAGUUUAUCAUG

Variants of: B1
Experiment: polymerase ribozyme fitness, log enrichment relative to wild type (log ratio); higher = more active; in vitro selection for triplet polymerase activity
Method in brief: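 Mutant libraries for each subunit of a heterodimeric triplet polymerase ribozyme were made by PCR and then transcribed. Each library underwent one round of in vitro selection in triplicate: annealing with a biotinylated primer, the partner subunit and triplets, frozen incubation at −7 °C, gel excision of extended constructs, streptavidin-bead capture and RT-PCR. Input and output libraries were Illumina-sequenced, and only genotypes with ≥10 input reads and ≥1 read per output were kept. Fitness is the logarithm, base 2, of genotype enrichment over wild-type enrichment, computed from inverse-variance-weighted replicate averages.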

Compared with GGAUCUUCUCGAUCUAACAUAAAAGACAAAUCUGCCACAAAGCUUGAGAGCAUCUUAGGAUGCAGAGGCGGCAGCCUUCGGUGGCGCGAUAGCGCCAACGUUCUCAACUAUGACACGCAAAACGCGUGCUCCGUUGAAUGGAGUUUAUCAUG [A20U C57A], GGAUCUUCUCGAUCUAACAUAAAAGACAAAUGUGCCACAGAGCUUGAGAGCAUCGUCGGAUGCAGAGGCGGCAGCCUUCGGUGGCGCGAUAGCGCCAACGUUCUCAACUAUGACACGCAAAACGCGUGCUCCGUUGAAUGGAGUUUAUCAUG [A20U C32G A40G U55G] is lower in “polymerase ribozyme fitness (log ratio)” value: -1.36 for the first, -4.19 for the second.

GGAUCUUCUCGAUCUAACAUAAAAGACAAAUCUGCCAUAAAGCUUGAGAGCAUCUUCGGAUGCAGAGGCGGCAGACUUCGGUGGCGGGAUAGCGCCAACGUUCUCAUCUAUGACACGCAAAACGCGUGCUCUGUUGAAUGGAGUUUAUCAUG [A20U C38U C75A C87G A107U C132U] and GGAUCUUCUCGAUCUAACAUAAAAGACAAAUGUGCCACAAAGCUUGAGAGCAUCUGCGGAUGCAGAGGCGGCAGCCUUCGAUGGCGCGAUAGUGCCAACGUUCUCAGCUAUGACACGCAAAACGCGUGCUUGGUGGAAUGGAGUUUGUCAUG [A20U C32G U56G G81A C93U A107G C131U C132G U135G A147G] cannot be ordered by “polymerase ribozyme fitness (log ratio)” value: at most -4.2 for the first, at most -4.2 for the second.

GGAUCUUCUCGAUCUAACAUAAAAGACAAAUCUGCCACAAAGCUUGAGAGCAUCUUUGGAUGCAGUGGCGGCAGCCUUCGGUGGCGCGAUAGCGACAACGUCCUCAACUAUGACACGCAAAACGCGUGCUCCGUUGAAUGAAGUGUAUCAUG [A20U C57U A66U C95A U102C G141A U145G] and GGAUCUUCUCGAUCUAACAUAAAAGACAAAUCUGCCACAAAGCUUGAGAGCAUAUUCGGAUGCAGAGGCGGCAGCCUUCGGUGGCGCGAUAGCGCGAACGUUCUCAAGGAUGACACGGAAAACGCGUGCUCAGUUGAAUGGAAUUUAAUAUG [A20U C54A C96G C108G U109G C118G C132A G143A U148A C149U] cannot be ordered by “polymerase ribozyme fitness (log ratio)” value: at most -4.2 for the first, at most -4.2 for the second.

GGAUCUUCUCGAUCUAACAUAAAAGACAAAUCUGCCACAAAGCUUGAGAGCAUCUUCGGAUGCAGAGGCGGUAGCCUUCGGUGGAGCGAUAGCGCCAACGUUCUCAACUAUGACACGCAAAACGCGUGCUCCGCUGAAUGGAGUUUAUCCUG [A20U C72U C85A U134C A150C] and GGAUCUUCUCGAUCUAACAUAAAAGACAAAUGUGCCACAAAGCUUGAGAGCAUCUUUGGAUGCAGAGGCGGCGGCCUUCGGGGGCGCGAUAACGCCAACGUUCUCAACUAUGACACGCAAAACGCGUGCUCCGUUGAAUGGAGUUUAUCAUG [A20U C32G C57U A73G U82G G92A] cannot be ordered by “polymerase ribozyme fitness (log ratio)” value: at most -4.2 for the first, at most -4.2 for the second.

Going from GGAUCUUCUCGAUCUAACAUAAAAGACAAAUCUGCCACAAAGCUUGAGAGCAUCUUCGGAUGCAGAGGCGGCAGCCUUCGGUGGGGCGAUAGCGCCAACGUUCUCAACUAUGACACGCAAAACGAGUGCUCCGUUGAAUGGAGUCUAUCAUG [A20U C85G C125A U145C] to GGAUCUUCUCGAUCUAACAUAAAAGACAAAUUUGCCACAAAGCUUGAGAGCAUCUACGGAUGCAGAGGCGGCAGCCUUCGGUGGCGCGAUAGCGCCAACGUUCUCAACUAUGACACGCAAAACGCGUGCUCCGUUGAAUGGUGUUUAUCAUG [A20U C32U U56A A142U], the “polymerase ribozyme fitness (log ratio)” value falls from -3.41 to -3.91.

First: GGAUCUUCUCGAUCUAACAUAAAAGACAAAUCUGCGACAAAGCUUGAGAGCAUCUUCGGAUGCAGAGGCAGCAGCCUUCGGUGGCGCGAUAGCGCCAACGUUCUCAACUAUGACACGCAAAACGCGUGCUCCGUUGAAUGGAGUUUAUCAUG [A20U C36G G70A]
Second: GGAUCUUCUCGAUCUAACAUAAAAGACAAAUCUGCCACAAACCUUGAGAGCAUCUUCGGAUGCAGAGGCGGCAGACUUCGGUGGCGCGAUAGCGCCAACGUUCUUAACUAUGACAUGCAGAACGCGUACUCCGUUGAAUGGAGUUAAUCAUG [A20U G42C C75A C105U C116U A120G G128A U146A]
The “polymerase ribozyme fitness (log ratio)” value of the first is higher: -4.1 for the first, at most -4.2 for the second.

Compared with GGAUCUUCUCGAUCUAACAUAAAAGACAAAUCUGCCACAAAGCUUGAGAGCAUCUUCGGAUGCAGAGGCGGCAGCCUUCGGUGGCGCGAUAGAGCCAACGUUCUCAACUAUGACACGCAAAACGCGUGCUCCGUUGAAUGGAGUUUAUCAUG [A20U C93A], GGAUCUUCUCGAUCUAACAUAAAAGACAAAUCUGCCACAAAGCUUGAGAGCAUCUUCGGAUGCAGAGGCGGCAGCCUUCGGUGGCGCGAUAGGGCCAACGUUCUCAACUAUGACACGCAAAACGCGUGCUCCGUUGAAUGGAGUUUAUCAUG [A20U C93G] is lower in “polymerase ribozyme fitness (log ratio)” value: -2.86 for the first, at most -4.2 for the second.

GGAUCUUCUCGAUCUAACAUAAAAGACAAAUCUGCCACAAAGCUUGAGAGCAUGUUCGGAUGCAGAGGCGGCAGCCUUCGGUGGCGUGAUAGCGCCAACGUUCUCAACUAUGACGCGCAAAACGCGUGCUCCGUUGAAUGGAGUUUAUUAUG [A20U C54G C87U A115G C149U] and GGAUCUUCUCGAUCUAACAUAAAAGACAAAUCUGCCACAAAACUUGAGAGCAUCUUCGGAUACAGAGGCGGCAGCCUUCGGUGGCUCGAUAGCGCCAACGUUCUCAACUAUGACACGCAAAACGCGUGCUCCGGUGAAUUGAGUUUAUCAUG [A20U G42A G62A G86U U134G G140U] cannot be ordered by “polymerase ribozyme fitness (log ratio)” value: at most -4.2 for the first, at most -4.2 for the second.

Going from GGAUCUUCUCGAUCUAACAUAAAAGACAAAUCUGCCACAAAUCUUGAGAGCAUCGUCGGAUACAGAGGCGGCAGCCUUCGGUGGCGCGAUAGCGCCAACGUUCUCAACUAUGACACGCAAAACGCGUGCUCCGUUGAAUGGAGUUUAUCAUG [A20U G42U U55G G62A] to GGAUCUUCUCGAUCUAACAUAAAAGACAAAUCUGCCACAAAGCUUGAGAGCAUCUUCGGAUGCAGAGGCGGCAGCCUUCGGUGGCGCGAUAGCGCUAGCGUUCUCAACUAUGACACGCAAAACGCGUGCUCCGUUGAAUGGAGUUUAUCAUG [A20U C96U A98G], the “polymerase ribozyme fitness (log ratio)” value rises from at most -4.2 to -1.71.

In the case of GGAUCUUCUCGAUCUAACAUAAAAGACAAAUCUGCCACAAAGCUUGAGAGCAUCUUCGGAUGCAGAGGCGGCAGCCUUCGGUGGCGCGAUAGUGCCAACGUUCUCAACUAUGACACGCAAAACGCAUGCUCCGUUGAAUGGAGUUUAUCAUG [A20U C93U G126A], the “polymerase ribozyme fitness (log ratio)” value is reported as -1.5.
